Experimental data reported in patent US20220411506A1 (SUZHOU GALAXY BIOPHARMA, published 2022).
Numbering of substitutions follows the chain as printed. Blank lines part the entries; values can stand above or below the binder they belong to.

How the values were obtained:
[1] = molecular target: T1, hCTLA4-hFc (human, UniProt P16410 36-161); assay: ELISA, coated hCTLA4-hFc
T1 construct: also called hCTLA4-Fc protein; biotinylated hCTLA4-hFc; not shown: hFc (human Fc)
T1 sequence (looked up): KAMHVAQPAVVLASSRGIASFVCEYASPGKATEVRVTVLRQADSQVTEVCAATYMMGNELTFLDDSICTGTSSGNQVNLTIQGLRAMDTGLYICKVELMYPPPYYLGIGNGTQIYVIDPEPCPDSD
Experimental: ELISA was used for detecting the binding of purified antibodies to CTLA4-hFc. […] The plates were washed with PBST (PBS containing 0.05% of Tween-20) three times, and were blocked with 5% skimmed milk powder (Oxoid, catalog #LP0031B) for 2 hours at 37° C. The plates were washed three times with PBST and were incubated for 1 hour at room temperature with antibodies to be detected. The plates were washed three times and incubated for 1 hour at room temperature with 1/5000 diluted HRP-labeled goat anti-mouse IgG secondary antibodies (Invitrogen, catalog #31432). The plates were washed with PBST and were developed by adding TMB.

[2] = molecular target: T2, monkey CTLA4-Fc (SinoBiological, catalog #90213-C02H) (monkey, UniProt G7PL88 36-161, Probably biotin-labeled (detected with HRP-streptavidin). Fused to an Fc that is not given in letters.); assay: ELISA, coated antibody, monkey CTLA4-Fc
T2 construct: Detected with streptavidin, so read as biotin-labeled like the mouse protein
T2 sequence: T1 sequence (looked up) with S14N, I18T, L106M
Experimental: (§1) Species cross reactions of the purified antibodies were detected using ELISA. The quantified purified antibodies were coated on 96-well plates (Corning, catalog #9018) followed by incubation overnight at 4° C., and were blocked with 5% skimmed milk powder (Oxoid, catalog #LP0031B) for 2 hours at 37° C. The biotin-labeled mouse CTLA4-His (SinoBiological, catalog #50503-M08H) or monkey CTLA4-Fc (SinoBiological, catalog #90213-C02H) was added to the plates and incubated for 1 hour at room temperature. The plates were washed three times with PBST and incubated with 1/1000 diluted HRP-labeled streptavidin (BD, catalog #554066) for 1 hour at room temperature. The plates were washed and developed by adding TMB.

[3] = molecular target: T3, biotin-labeled mouse CTLA4-His (SinoBiological, catalog #50503-M08H) (mouse, UniProt P09793 36-162, biotin-labeled (site not stated)); assay: ELISA, coated antibody, biotin mouse CTLA4-His
T3 construct: not shown: His tag
Experimental: as §1

[4] = molecular target: T1, hCTLA4-hFc; assay: blocking ELISA, coated antibody, biotin hCTLA4-hFc, competitor hCD80-Fc
Experimental: (§2) The purified antibodies were coated on 96-well plates (Corning, catalog #9018) followed by incubation overnight at 4° C., and were blocked with 5% skimmed milk powder (Oxoid, catalog #LP0031B) for 2 hours at 37° C. […] The plates were washed with PBST and incubated with HRP-labeled streptavidin (BD, catalog #554066) for 1 hour at room temperature. The plates were washed and developed by adding TMB.

[5] = molecular target: T1, hCTLA4-hFc; assay: blocking ELISA, coated antibody, biotin hCTLA4-hFc, competitor hCD86-Fc
Experimental: as §2

[6] = molecular target: T4, hCTLA4-mFc fusion protein (human, UniProt P16410 36-161); assay: BLI (Octet-96), CTLA4-mFc on AMC sensor, antibody 3-200 nM, 1:1 global fit
T4 construct: Captured on AMC (anti-mouse Fc capture) sensors in the Octet assay; not shown: mFc (mouse Fc)
T4 sequence (looked up): T1 sequence (looked up)
Experimental: The kinetic constants (kassoc and kdissoc) of binding of the antibody and the antigen were measured using the biomolecular interaction system Octet-96 (Pall Life Sciences, S-000959), and the equilibrium binding constant KD was further calculated. […] Specifically, AMC sensors were pre-wet in the buffer (PBS containing 0.02% Tween-20 and 0.1% BSA) for 10 minutes and then equilibrated in CTLA4-mFc sample buffer for 5 minutes to such that the CTLA4-mFc proteins were coupled to the surfaces of sensors. The CTLA4-mFc-coupled AMC sensors were first equilibrated in the buffer for 2 minutes and then incubated for 5 minutes in buffer containing different concentrations of antibody (3-200 nM) to measure the binding of antibodies to the CTLA4-mFc protein. Finally, the antigen and antibody-bound sensors were repositioned in the sample buffer and waited for 10 minutes to measure the dissociation of antibodies from the CTLA4-mFc proteins. The measured data were globally fitted using a 1:1 model to obtain kinetic constants of binding and dissociation. On this basis, an equilibrium binding constant KD was further obtained.

[7] = molecular target: T1, hCTLA4-hFc; assay: competition ELISA: biotin-labeled CTLA4-hFc pre-incubated with graded chimeric antibody, captured on coated Ipilimumab (2 ug/mL)
Experimental: The plates were washed three times with PBST and incubated with 1/1000 diluted HRP-labeled streptavidin (BD, catalog #554066) for 1 hour at room temperature. The plates were washed and developed by adding TMB.

[8] = molecular target: T5, human CTLA4 on the cell surface (human, UniProt P16410 36-223); assay: FACS on 293T-hCTLA4 cells
T5 construct: whole, on cells; also called CTLA4 on the surface of human T cells
T5 sequence (looked up): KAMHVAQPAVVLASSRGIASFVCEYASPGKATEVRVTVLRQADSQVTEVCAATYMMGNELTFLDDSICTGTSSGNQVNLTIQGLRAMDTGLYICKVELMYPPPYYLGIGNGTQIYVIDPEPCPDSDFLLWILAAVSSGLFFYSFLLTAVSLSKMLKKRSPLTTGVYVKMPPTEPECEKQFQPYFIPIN
Experimental: The purified antibodies to be detected were added to wells at a certain concentration (50 μL/well) and incubated for 1 hour at 4° C. The cells were washed three times with buffer and were incubated for 0.5 hour at 4° C. with PE-labeled fluorescent secondary antibodies. The cells were washed three times with FACS buffer and re-suspended to 200 μL/well. The fluorescence signals were detected using Attune Nxt flow cytometer (Thermo Fisher).

Kd [6]: 0.0868 nM | IC50 (read off the curve) [7]: ~0.2 mg/L
B4: human-mouse CTLA4 chimeric antibody 9B8-H2-B6-G5 (antibody, V domains shown)
VH: QVQLQQPGSELVRPGASVKLSCKASGYTFTNYWVHWVKQRPGQGLEWIGNIFPGSDTSNYDEKFISKATLTVDTSSSAAYMQLNSLTSEDSAVYYCARLAYFTNYGGAMDYWGRGTSVTVSS
VL: DIVLTQSPASLVVSLGQRATISCRASKSVSTSAYNYMHWYQQKPGQPPKLLIYLASNLESGVPARFSGSGSGTDFTLNVHPVEEEDAATYYCQLSRELPYTFGGGTKLEIK

EC50 [1]: 0.025 nM | EC50 [8]: 1.08 nM | ELISA (OD) [2]: 0.37 OD | ELISA (OD) [3]: 0.06 OD | IC50 [4]: 0.00292 mg/L | IC50 [5]: 1.08 mg/L
B5: murine anti-CTLA4 monoclonal antibody 9B8-H2-B6-G5 (antibody, V domains shown)
VH: B4 VH
VL: B4 VL
notes: Mouse hybridoma antibody purified on Protein A

Continued, binder first:

B1: murine anti-CTLA4 monoclonal antibody 19C5-G11-A7-G5 (antibody, V domains shown)
VH: EVQLQQSGTVLARPGASVKMSCKASGYSFTSYWIHWVKQRPGQGLEWIGAFYPGNSDTNYNQNFKGKAKLTAVTSASTAYMELSSLTNEDSAVYYCTYYYRSSYAMDNWGQGTSVTVSS
VL: DIQMNQSPSSLSASLGDTITITCHASQNINDWLSWYQQKPGNIPKLLIYKASNLHTGVPSRFSGSGSGTGFTLTISSLQPEDIATYYCQQGQSYPLTFGSGTKLEIK
notes: as for B5
EC50 [1]: 0.036 nM | ELISA (OD) [2]: 0.64 OD | ELISA (OD) [3]: 0.06 OD | IC50 [4]: 0.0357 mg/L | IC50 [5]: 3.15 mg/L

B2: human-mouse CTLA4 chimeric antibody 4H9-G5-D5-B1 (antibody, V domains shown)
VH: EVKLDETGGGLVQPGRSMKLSCVVSGFTFSDNWMNWVRQSPEKGLEWVAQIRNKPYNFETYYSDSVKGRFTISRDDSKSTVYLQMNNLRAEDMGVYYCTGGFTYWGQGTLVTVSA
VL: DIQMTQSPASLSASVGETVTITCGASENIYGGLNWYQRKQGKSPQLLIYGATNLAEGMSSRFSGSGSGRQYSLKISSLHPDDVATYYCQNVLSSPWTFGGGTKLEIK
Kd [6]: < 0.001 nM | IC50 (read off the curve) [7]: ~0.03 mg/L

B3: murine anti-CTLA4 monoclonal antibody 4H9-G5-D5-B1 (antibody, V domains shown)
VH: B2 VH
VL: B2 VL
notes: as for B5
EC50 [1]: 0.023 nM | EC50 [8]: 1.35 nM | ELISA (OD) [2]: 2.79 OD | ELISA (OD) [3]: 0.05 OD | IC50 [4]: 0.0691 mg/L | IC50 [5]: 7.24 mg/L
